Measured values as given in the DeepSol protein solubility set.

test: soluble on expression in E. coli; label from the status in PepcDB or PDB records

Sequence | soluble on expression in E. coli
MGSDKIHHHHHHMVNSEQALHQHDPAPILQLDKVSKSFGPVNVINQVSIDVRPGRVLALLGENGAGKSTLIKMMSGVYQPDGGQILVDGKPTTLPDTKTAESFGIATIHQELNLVPTMTVAENVMLGRTPRKWGLVNFKHLRRQAQAALDLIGVDVDLNAQVGSLGIARQQMVEIAKALSMNARILILDEPTAALTGREIDQLFKVVDQLKEKGVAMVFISHHLDEIARIGDTVSVLRDGQFIAELPADTDEDELVRLMVGRSIENQYPRSAPEIGQPLLEVKNLNAEGRFTDISLTVRAGEVVGLAGLVGAGRTEVVRSIAGVDKVDSGEVIVAGKKLRGGDISEAIKNGIGHIPEDRKAQGLVLGSSVEDNLGLATLASTARAGLVDRSGQHKRAAEVAEKLRIRMASLKQPISDLSGGNQQKAVFGRWVLAGSNVLLLDEPTRGVDVGAKVEIYNIINEMTEKGGAVLMVSSELPEVLGMADRILVMSGGRIAGELPAKGTTQDDVMALAVSQVDDSITEEAAAEIENTKEDR | not soluble
TSHHHHHMKKIEHKMVAVNGLNMHLAELGEGPTILFIHGFPELWYSWRHQMVYLAERGYRAVAPDLRGYGDTTGAPLNDPSKFSILHLVGDVVALLEAIAPNEEKVFVVAHDWGALIAWHLCLFRPDKVKALVNLSVHFSKRNPKMNVVEGLKAIFGEDHYISRFQVPGEIEAEFAPIGAKSVLKKILTYRDPAPFYFPKGKGLEAIPDAPVALSSWLSEEELDYYANKFEQTGFTGAVNYYRALPINWELTAPWTGAQVKVPTKFIVGEFDLVYHIPGAKEYIHNGGFKKDVPLLEEVVVLEGAAHFVSQERPHEISKHIYDFIQKF | soluble
MKFTPPPASLRNPLIIPEKIMMGPGPSNCSKRVLTAMTNTVLSNFHAELFRTMDEVKDGLRYIFQTENRATMCVSGSAHAGMEAMLSNLLEEGDRVLIAVNGIWAERAVEMSERYGADVRTIEGPPDRPFSLETLARAIELHQPKCLFLTHGDSSSGLLQPLEGVGQICHQHDCLLIVDAVASLCGVPFYMDKWEIDAVYTGAQKVLGAPPGITPISISPKALDVIRNRRTKSKVFYWDLLLLGNYWGCYDEPKRYHHTVASNLIFALREALAQIAEEGLENQIKRRIECAQILYEGLGKMGLDIFVKDPRHRLPTVTGIMIPKGVDWWKVSQYAMNNFSLEVQGGLGPTFGKAWRVGIMGECSTVQKIQFYLYGFKESLKATHPDYIFEESNGFH | soluble
MAHHHHHHMHACVAAIAMGEVGVYDDQRSSGQEISLAAAAAAGVQYARSSRTAFSCTSKSARQGGGGAVPIENLLPPLIEQPEKSLRAARGDTGAAITEDERAAIAMETWEHYMATAREATSAEGASMMPSATAAATMMSSASCANAAHSCTSAVAAEAPLVPIRSFPDALCALIERCTATPLVCLTLSDQQCQTTAVRDLLRALLTIMQRIEDSAVAAIDCEIALASHSSSSGHHTPVAATAALDLQAVRLAAVKGISRVLTTYLDGADGSAQPPTKASETFTAGLGHLDILSVFEDVVHQWAHVLTVLERGKELIGASAGVGKGSDVKAEDDLSGVPESPQGHRSGKDGTGAAAQLHWVLRIAYQIIAAEQREASRGSAEAAPRVRLLPPLLVPVALRTLSLITTVIPLVCRPASYVQLCVDVLWGASLLTPSESSRQLMYGSMGVAGLAGASNGSCEGEADVSRGAEASPPAMDLFLALLHQFNEGHSAAHRELRDDLVCLFAFLLRCDIQYVENKLVAQSCRAEWSPTNVFGVNSAVSPPPRLRSKLTPRRSISTSPLWRRSTLWRRCCSRQRAGPNSQRRCTRPQPQPQRRFSPPTSIEANLLR | not soluble
GSLILDGDLLKDKLKLPVIDNLFGKELLDKFQDDIKDKYGVDTKDLKILKTSEDKRFYYVSVDAGDGEKCKFKIRKDVDVPKMVGRKCRKDDDDDDGY | soluble
MAHHHHHHMNLIVHDLDFMKRILLNDERKWGEESAPGEGRTESSHQPKIITIVLNNTLCAHSAKFIANSDVLICADGGANRLYNLCQSLATERGAIDDEGSSLKGEEDKNTALHASHTNERSHHVSGRHTISDLFNMPVEKKEKALKRPTEIVPHIICGDFDSINAHVYSYYKNKSVIFEKCANQENTDLDKCIDVIRGYIRTNDKILILGATGNRFDHTCANISCLYKNASLNSLYLIGENNFLFLLQQGSHIIHVSPDVFCKGCGILPFGGKCTIKTEGLKYNLNDECLSFDTLISSSNEVVQREVKIFNDSPVVWSAQLI | not soluble
MGGTSYLIVGNEGNILIDCPALDQTNLNFLRSHGGVRWLFLTHRGAIGRTAEIQQNYGCDILIQEQEAYLLPGLTVTTFTQEFAVTPTAKAIWTPGHSPGSSCLYYNHQGGVLFSGRHLLPNQKGEPVPLRTAKTFHWPRQIKSLQTILETLTPETLQYICPGANTGFLRGKRSIDTAYQRLASLDLKALLQTQPLEHHHHHH | not soluble
MRMLAAERRDHLLGLLARQGKIVAKDVAAELRISEDTVRRDLRDLASEGLCQRVYGGALPVSPAVADYGARRTVAPDGKRKVASAAAGLVRPGGVVILDGGTTALAVVHALPEDLDCTVITHSPTIAAALLDHPRAEVFVLGGRLFKHSAVACGAAAVEAAQNVSADLFLLGVTGVHLEAGLTTGDAEDAAMKRALAARAADTYVLASSEKIGTASRYRVLPWEEISGLVTDTPPHDPVIEQLTAGGVDVLAADAAALEHHHHHH | not soluble
MAIGGWIKLYRTIQDHWIWENPQYLKWWLDLIFMANHQDRKILFDGELKTVKVGERITSEKKLSERWEVSRNTVRKFLDLLVKDDMIELSRSRQNGTWYKVSNYAEYQNFSEIKKQRTEQRREQQAAHQTEQRTEHKQEPKEPKNLRNNNNNNKGAFIRSIWENNGFGLMSSKTMTDFDYWISDFEKIGASQKEAEQLIVKAIEIAIDANARNYNYINAILKDWEQRGFKSVEEREAARKQKKTTKKQKSNTGHSDYDDLGF | not soluble
MSLAYDNVMKDKKIRVGLMTDSIPGGFYNEKGEWGGFDYDIATEIAKRMGVDIERVQVNNKTRIAYVQQGRVDISVSNMTHTRERDKSVDFSITYFFDGQKVLAKKGQFKSVKDMVGKKIATMQGTTSEVNVKRALKEAGDPNPDQSVISFQKESECFQALQMGRVAGWSTDASILVGYSAKEPGKFELVGNFLAEEPYGIAMPQDDSALRDAVNAALQDMWKDGTYKTIYNKWYGPGTPFEMPLAGQIEMWPEGHHHHHH | soluble
MGSDKIHHHHHHMDYRKIIKEIGRGKNHARDLDLDTARGLYTRMLNGDVPDLEMGSILMALRIKGEGEAEMLGFYEAMQNHTIKLTPPADRPLPVVIPSYNGARKQANLTPLLAILLHKLGFPVVVHGVSEDPTRVLTETIFELMGIIPTLHGGQAQAKLDGRQPVFIPVSALCPPLEKQLAMRWRMGVRNSAHSLAKLATPFAEDAALRLSSVSHPEYVPRVATFFSRIGGRALLMHGTEGEVYANPQRCPQISLIDSRGVQVLHERQSDTYDEPLSLPATKDPEITARWIERCLAGHEPVPQSLKTQMACCLVATGEAATLEDGLARVEQAFSE | not soluble
MNMVSQGVKGGEYRSPQKNYTQLTFKNVDAIGHPQGAISQMLNSTGYYCQSQTTPFVPYFLSSLDFFAWRQAIPEMFYPEALVPGMREIRGNGETWGNIFPRSGAVTQVDDYKASAVSVHRVADFLTRMAQPHIYLPTAKQEQGQNGHWYPDPVQEGEVGNHKWQQLHPQLSQSCSIFPDTPPAQLSENGSYAWALWRPYKCCKRRGQTFLYSVDWSNLEHHHHHH | not soluble
MVYFEEVRRHIRIDAAHVYGGLLATLTALYEYHQIPYEGIPVGTIKKKMTGKGNASKEEIIKVVCAKGHASCDDNEADALATLHVMKGKEIRHVN | not soluble
MGSDKIHHHHHHMRKLPPLRALQIFEAAARHAHFSRAATELCITQSAVSHQVRLLEAHFGERLFIREGRQLCLTSKGNVLYHELERIFNELNDLSMQITGDCNDQLRLAVYSSFAIKWLIPRLSDFHRLHPQIKIRLDMITDDPQMSDSVADMFITGQSGQPGYVHRMLHQERLIPVICPGLLNTDHSALSVLRQHALLTVDEGPIGFDWERWLKVNSISIAATQQQHVFSHVLLAIEAAIAGQGIALASDFMVERDISKGALVALDLPAMLTGFEFNFSCKQRRLKEPAIAAFVQWLTKK | not soluble
GFTVALIQGDGIGPEIVSKSKRILAKINELYSLPIEYIEVEAGDRALARYGEALPKDSLKIIDKADIILKGPVGESAADVVVKLRQIYDMYANIRPAKSIPGIDTKYGNVDILIVRENTEDLYKGFEHIVSDGVAVGMKIITRFASERIAKVGLNFALRRRKKVTCVHKANVMRITDGLFAEACRSVLKGKVEYSEMYVDAAAANLVRNPQMFDVIVTENVYGDILSDEASQIAGSLGIAPSANIGDKKALFEPVHGAAFDIAGKNIGNPTAFLLSVSMMYERMYELSNDDRYIKASRALENAIYLVYKERKALTPDVGGNATTDDLINEIYNKLG | soluble
MRNIQPRRLVTASGQPIVIRTAWPEDAERIVAFVKAVTAEALYLLTTEAEVTVTEDQQRQWLQKMADDPGKLALLAEHDGEMIGFLDFHNGNKRFRHEREKRLSRPGDRHGVACSAP | not soluble
MAHHHHHHMHRRTLRRLQQVVQNPPVGSANIPSPYATEGGHVPIWSIVNGFVQKRNWVFRNPEWCDLCKEPVALWVNHHGRKDHALMDMHYTQMVEFPRRWNPEEILAVFLEELGLSVEAYQKYYGGYEREHRNELYAMLVALEEAKMLHFGEPRDTYLYRMQGGLRGMDHQGALVLHRYILGPFMRIYPNGHIQDYSNLVDFVTCAYNMETVYDLCGFYTLDKVALKADYKPSSPAALGLGGIAVHSSATHGFAQQAMEKPQQSPQPQPQRHMTVGTGGRSAADMEEEAFSRKAVFVRQLLGQLRWLTLPDEEHPAGHMFPQHLMFLGEICLKSLVAEIVAARLCEYMVRVEPVWRDHGYERVKLDVDKIMRKENDILPEPVKFFYRPMSPKMDDLYSTNRGNLDEALEKAVVAPVSGKGA | soluble
MQNLRRAVFAGLVAGTLSEGAAATAGDGGFVEDSELQFLARTYYFNRDYRDSPNNAGRNRFKPRSERNGYREEATQGLRLQFASGYTPGSLGFGLDAHAMLGLQLDSGGGRTGTGNLPVGADGHPDHRYGKVGGALRLRHGETRLKYGQTTTSAPVFAASSNRTLAGMAYGLLLEDRSFDGLLLEGGRFTAASGPGESKVRGDISTVYGRLGAYPVRLDAVGFLGGQWQATERLQLSLYASRFDDIWQQAYFGASHRQPLGGERALRVDLDAYRTRDSGQSRFGRIDTLTSSLALGYEHGPQRITLAYQRVHGEQPFDYMAFGDGRSSASMVLANSVGYSDFNGPGERSWQLRYDLDLGALGLPGLSLHALHARGRAGASASSAAESIYAGLYGRDGRHRENDLGFAYRVKAGPLAGLALRASQAWHRGNASYLDGDIDETRLVVDYSRSIW | not soluble
GPGSMCNRFSCSSCRYVVPIQSRRPLTINHSFLKYNKVVDDDDEKGSSNTVKRGVKEEEEVDGGQVITVRCQNDEKQCDGDRAHYVQIQMRSADEPATTFFKCLKCGFQWKQD | soluble
MYSTLEQLTKHPVFYHFAEISKIPRGSGNEKEISDYLVGFAKERNLEVIQDEALNVIIKKEATTGYENVPAIIIQGHMDMVCEKNQATVHDFEKDPIELRIIGDMLYANQTTLGADNGIAVAYALALLDSKEIPHPALEVVITTEEETTMGGAFAIDPNHFEGKIFINIDSEEDHKLLVSSAGGAKAVETIPVIWDETPANMDAYRLYVGGLKGGHSGMEIDKQRGNANKVLGRVLRDLSAHTEFNISEVHGGLKTNAIPRESVATLLIRTEDVGQVEEKLESWTRVLQEEMRAVDPDVHVTLTKLDETVEKVFAQETQKQLISSLFLIPNGIQSMSMDIKGLVESSTNLGVIETLQDEIKLRNEVRSSVSSLKQHVAEEIKYIAELVGATFEIESEYPEWPYNPNSQIRNLFEKVHQEKYNKEIEIFAVHAGIECSAFVQKMPELDAISFGPDIFNVHTPDEHISISSVVNNWGFFIDVMKGTKELAK | not soluble
